Source: publication PMC7549315

Target: GFP-SAPwt (SAP domain of SAF-A) (UniProt Q00839 8-42)
Experiment: EMSA

GFP-SAPwt (SAP domain of SAF-A), sequence (Q00839 8-42): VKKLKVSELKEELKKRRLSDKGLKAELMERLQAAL

B1: AT-rich SAR DNA (dsDNA)
DNA 1: AATTCAGAAAATAATAAAATAAAACTAGCTATTTTATATTTTTTC
DNA 2: GAAAAAATATAAAATAGCTAGTTTTATTTTATTATTTTCTGAATT
- Kd: 16.5 µM
